± gives the standard deviation of the averaged measurements.
Each sequence was assayed on Saccharomyces cerevisiae (assay: protein stability index of tFT-peptide fusion (C-terminal peptide) (PSI (0-1 scale)); higher = more stable (slower turnover)). Settings: genetic background: wild type; temperature: 30 C.
With MWRWRAHVDRFR the protein stability index was 0.6831 ± 0.0058.
ARRSAGGAAVPG gave a protein stability index of 0.624 ± 0.0098.
With TTWSPWLGVAET the protein stability index was 0.752 ± 0.07.
With GGHLTMMFGRLF the protein stability index was 0.713 ± 0.019.
Sequence SAGPNCVWSSYN has a protein stability index of 0.732 ± 0.0098.
In the case of PPPAYTPPLPPP, the protein stability index is reported as 0.669 ± 0.0073.
In the case of SFLGLDDEICLR, the protein stability index is reported as 0.716 ± 0.044.
Sequence VLEKFFFGLAIL has a protein stability index of 0.569 ± 0.014.
NLYLEKLLHSEP was tested, and the protein stability index was 0.715 ± 0.018.
For EKEWKRGTRKLD, the protein stability index was 0.702 ± 0.085.
With LPPLPRPLLLPR the protein stability index was 0.661 ± 0.044.
For LACMWICPHIQA, the protein stability index was 0.606 ± 0.023.
Sequence SGYYTRVFICEV has a protein stability index of 0.618 ± 0.025.
With VLRFHIRRTQQQ the protein stability index was 0.707 ± 0.012.
Work on YTPLLAHRGCCC yielded a protein stability index of 0.695 ± 0.029.
GNCVESCMWQRE showed a protein stability index of 0.704 ± 0.05.
Sequence DAGLCGCCGVIG has a protein stability index of 0.666 ± 0.057.
In the case of AVAERGRPPLKE, the protein stability index is reported as 0.6893 ± 0.0059.
In the case of PPTLHVSPLCPL, the protein stability index is reported as 0.607 ± 0.013.
RPVQRLVPLTPR showed a protein stability index of 0.706 ± 0.054.
In the case of PVPVFLLLFFSP, the protein stability index is reported as 0.496 ± 0.052.
Sequence PLPIPPRRPNSP has a protein stability index of 0.65 ± 0.091.
GIVVTCLRSRWD was tested, and the protein stability index was 0.647 ± 0.013.
VCPPIVSSSWIL showed a protein stability index of 0.687 ± 0.035.
Work on IMCPVRDSNIFS yielded a protein stability index of 0.733 ± 0.026.
In the case of SVLEGGRWGFTR, the protein stability index is reported as 0.758 ± 0.038.
In the case of IKVKRRQLKQEK, the protein stability index is reported as 0.779 ± 0.097.
In the case of RPISPIAVGSVV, the protein stability index is reported as 0.6747 ± 0.0013.
In the case of FALFQSFCFFCF, the protein stability index is reported as 0.564 ± 0.061.
PPLPRSPSPPPP was tested, and the protein stability index was 0.644 ± 0.028.
Sequence PSELGAGNVMGG has a protein stability index of 0.699 ± 0.027.
GSSGQPDSPPIS was tested, and the protein stability index was 0.684 ± 0.015.
With LLSNTINRIWRN the protein stability index was 0.658 ± 0.018.
Work on SKKNKPAQRRPH yielded a protein stability index of 0.729 ± 0.026.
Sequence AGESPDLSARCG has a protein stability index of 0.661 ± 0.11.
Work on TSLIPPASPFAW yielded a protein stability index of 0.643 ± 0.11.
VDGLSGVRPRGL gave a protein stability index of 0.69 ± 0.033.
With AYCRRPALPWRG the protein stability index was 0.714 ± 0.028.
WLFVGGWGVFGG gave a protein stability index of 0.674 ± 0.068.
HPAPGSPPAAHL was tested, and the protein stability index was 0.734 ± 0.073.
For SALTSLAFGSFE, the protein stability index was 0.704 ± 0.046.
Sequence PRPAPPPPSTPP has a protein stability index of 0.6411 ± 0.0051.
In the case of HPPLRPPLGSRF, the protein stability index is reported as 0.868 ± 0.045.
DLGLEVVSFLKF showed a protein stability index of 0.741 ± 0.068.
Work on VMNGGCFGWAVG yielded a protein stability index of 0.628 ± 0.058.
Work on WGRNGRRMEVTK yielded a protein stability index of 0.687 ± 0.017.
For IARTGLGIIIKI, the protein stability index was 0.663 ± 0.054.
SGSCPSSTSATT gave a protein stability index of 0.732 ± 0.057.
WLYGEFGALVVD was tested, and the protein stability index was 0.685 ± 0.033.
SVSPRAPPILPP showed a protein stability index of 0.723 ± 0.058.
In the case of RNLRFEVLAVVI, the protein stability index is reported as 0.5272 ± 0.0049.
In the case of FLSGPCLLSFAS, the protein stability index is reported as 0.679 ± 0.12.
In the case of PPSLPPPPLSQP, the protein stability index is reported as 0.68 ± 0.026.
Sequence GRRWGGERVREG has a protein stability index of 0.66 ± 0.015.
Sequence RRGYLVPLPSHA has a protein stability index of 0.669 ± 0.039.
In the case of DGPWGGVRAGEV, the protein stability index is reported as 0.717 ± 0.063.
LSPPPPPLPPPL showed a protein stability index of 0.622 ± 0.12.
KKKKKQEREKRN showed a protein stability index of 0.623 ± 0.037.
Work on RLPTRRSALMGL yielded a protein stability index of 0.738 ± 0.043.
With PSFPSSSCTSPI the protein stability index was 0.693 ± 0.1.
PPSPPPPPPRPP was tested, and the protein stability index was 0.64 ± 0.022.
With AFRCGGAPGDFA the protein stability index was 0.654 ± 0.0094.
PPPPLRPPAAPP was tested, and the protein stability index was 0.639 ± 0.005.
PRTPAPAPTPRP was tested, and the protein stability index was 0.682 ± 0.017.
In the case of RINKIKRKKRIK, the protein stability index is reported as 0.618 ± 0.062.
For TRWRPPCAPSGS, the protein stability index was 0.742 ± 0.076.
In the case of GCDELGGRRFGR, the protein stability index is reported as 0.7207 ± 0.0051.
With PRGKVLPFAFAC the protein stability index was 0.554 ± 0.019.
PPPPDPPAPSSP showed a protein stability index of 0.749 ± 0.078.
In the case of YSSLLLPPLLLF, the protein stability index is reported as 0.621 ± 0.025.
PFPPHSPPSAPS was tested, and the protein stability index was 0.697 ± 0.0093.
Sequence LNLSIRDVTSSG has a protein stability index of 0.657 ± 0.013.
In the case of GELPGLFRCCLM, the protein stability index is reported as 0.492 ± 0.072.
Sequence GPALCPVWATYG has a protein stability index of 0.591 ± 0.0086.
Sequence CLRGGGAGDGAS has a protein stability index of 0.673 ± 0.048.
STRTNPSYFTYQ gave a protein stability index of 0.675 ± 0.013.
In the case of ALPPIARPPPRV, the protein stability index is reported as 0.733 ± 0.029.
With LLLPSLAPTPTA the protein stability index was 0.654 ± 0.025.
Sequence PFPSYLSPLGPS has a protein stability index of 0.734 ± 0.037.
Work on YFVAVLGRCIRG yielded a protein stability index of 0.6519 ± 0.0011.
Sequence IGPRGPFHLTRI has a protein stability index of 0.675 ± 0.037.
In the case of AKKKEIQSTKHK, the protein stability index is reported as 0.705 ± 0.0093.
GEQGAPLSIRYS was tested, and the protein stability index was 0.622 ± 0.021.
Work on IVPIVDMMIIRK yielded a protein stability index of 0.653 ± 0.068.
LPRRLLFSYPTF showed a protein stability index of 0.647 ± 0.02.
Work on HQRGGPLPSSRR yielded a protein stability index of 0.739 ± 0.12.
RRKRKQQNTTTE gave a protein stability index of 0.685 ± 0.016.
LPPHRSSTPPPA gave a protein stability index of 0.644 ± 0.02.
NLVSCFSSCGSV gave a protein stability index of 0.628 ± 0.028.
In the case of GGCGGRGGVVVR, the protein stability index is reported as 0.687 ± 0.02.
EQVRVDETTGRR showed a protein stability index of 0.722 ± 0.025.
For GGRPIRNTTREG, the protein stability index was 0.655 ± 0.022.
VLSVLGLGFWGG showed a protein stability index of 0.8042 ± 0.0076.
Sequence PPSPPALPRFLL has a protein stability index of 0.697 ± 0.025.
With CQRHGTKIHRRR the protein stability index was 0.736 ± 0.053.
VRCWGRGSGVGD gave a protein stability index of 0.666 ± 0.036.
Work on PLPPPPPPPRSP yielded a protein stability index of 0.718 ± 0.077.
Sequence CIPVTGLHFRVI has a protein stability index of 0.6136 ± 0.0035.
PPPPPPTRCHTP showed a protein stability index of 0.728 ± 0.056.
With PGLRRHPPPPPP the protein stability index was 0.739 ± 0.071.
Sequence LSSLPSTFPPLP has a protein stability index of 0.692 ± 0.029.
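Also: PSI is a weighted mean of sequencing reads over stability bins, variants kept only with over 10 reads, mCherry proximal and sfGFP distal, peptide attached via GGGS linker.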
